Data from the supplement of paper PMC12764529.
± gives the half width of the 95% confidence interval.

Key:
[1] = folding stability dG unfold from trypsin proteolysis; higher = more stable
Outline: (§1)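 K50 was inferred by Bayesian fitting of sequencing counts obtained after protease digestion of designed mini-proteins. Unfolding free energy was derived by comparison with a sequence-predicted unfolded-state K50 and a shared folded-state K50, for each protease or both combined. The mini-proteins were under 80 residues, had no cysteine, were carried in a PA-tagged cDNA display construct, and were kept only if AlphaFold2 dimer inter-PAE exceeded 15.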

[2] = folding stability dG unfold from chymotrypsin proteolysis; higher = more stable
Outline: as §1

[3] = folding stability dG unfold (combined trypsin and chymotrypsin); higher = more stable
Outline: as §1

Sequence	folding stability dG unfold [1]	folding stability dG unfold [2]	folding stability dG unfold [3]
SAGGSAGGEISPEDIESVETETRTLPNGLKITRTRVRVKKTNQWFELVRIEPLPAEELSEEELKSAGGSAGG [r6_757_TrROS_Hall]	1.37 ± 0.053 kcal/mol	1.78 ± 0.062 kcal/mol	1.59 ± 0.13 kcal/mol
SAGGSAGGEIVITLPNVKSKEEAKKAAEKLIEELKKKGIKDKTIKVTVIDEKTGKEYTFTIKLKSAGGSAGG [r6_237_TrROS_Hall]	3.81 ± 0.15 kcal/mol	4.38 ± 0.16 kcal/mol	4.14 ± 0.3 kcal/mol
SAGGSAGGEKVEKKEVKVELKIVIVVSEELREMSEEELEELLKELAAKLPGVKEVKIEILPLPESAGGSAGG [r6_710_TrROS_Hall]	1.04 ± 0.13 kcal/mol	1.34 ± 0.13 kcal/mol	1.16 ± 0.13 kcal/mol
SAGGSAGGELEELPGLKVVAVFELPGNRRLVLFEAEGGRYLLLVEGEGTRLVPVPEDVSLEELASAGGSAGG [r6_680_TrMRF]	2.73 ± 0.043 kcal/mol	3.394 ± 0.031 kcal/mol	3.179 ± 0.03 kcal/mol
SAGGSAGGEMTAEELAEKLAEELKEKGYEVEVEVVEVEVEEDTVRIKIKLKDGRELEIELKIEPSAGGSAGG [r6_617_TrROS_Hall]	2.58 ± 0.16 kcal/mol	2.79 ± 0.28 kcal/mol	2.74 ± 0.25 kcal/mol
SAGGSAGGEPETIEIKMTPEELEELARELEKEGYTIEVEVVEEKVVGPDGKEREVVVRVRVEKRSAGGSAGG [r6_857_TrROS_Hall]	0.991 ± 0.03 kcal/mol	1.32 ± 0.04 kcal/mol	1.1 ± 0.099 kcal/mol
SAGGSAGGESSRLVAVFKFPPSNPNIKTSISFPSLPKSAKISESQAPFGNEYYLVVVIEVPKNSSAGGSAGG [r6_480_TrMRF]	2.6 ± 0.16 kcal/mol	3.88 ± 0.14 kcal/mol	3.37 ± 0.16 kcal/mol
SAGGSAGGEYEISIPNYELTEEKFDPNPGLLTVTYKDPEGKLVTITYKVKPDSIEKVKTETFEPSAGGSAGG [r6_719_JUSTAS]	0.569 ± 0.022 kcal/mol	1.14 ± 0.049 kcal/mol	0.963 ± 0.064 kcal/mol
SAGGSAGGFFHIEIEWRPVKLEDLPEEDAANGKELKPGDEIWVIVKIEIYPMPPPKFDKDGELNSAGGSAGG [r6_547_TrROS]	2.23 ± 0.19 kcal/mol	3.31 ± 0.23 kcal/mol	2.77 ± 0.2 kcal/mol
SAGGSAGGFKIPPGKTIMIQYPDGWMWRIKVKDGNTHMFKSPEEIEKLLNKPGFEIEIEWFPLDSAGGSAGG [r6_433_TrROS]	1.63 ± 0.083 kcal/mol	1.74 ± 0.24 kcal/mol	1.67 ± 0.19 kcal/mol
SAGGSAGGGAVVLEEAFDPVRPERLVLVEVVNEKGEPFRFPVPLEDLEAVFEKLPPGFPVLVLPSAGGSAGG [r6_111_TrMRF]	0.491 ± 0.021 kcal/mol	0.135 ± 0.1 kcal/mol	0.36 ± 0.048 kcal/mol
SAGGSAGGGDEVKTFKAKVKLVSVDPETGEQLVLAEVPDGKPILVKVPKSFPLKEDEIVEFELSSAGGSAGG [r6_68_TrMRF]	1.16 ± 0.027 kcal/mol	1.31 ± 0.036 kcal/mol	1.3 ± 0.059 kcal/mol
SAGGSAGGGEMELVLTVPPEEVTPEQLLELVEEIREALEKGGAKAEPVKIDPEKGVVILFRVDPSAGGSAGG [r6_850_TrMRF]	-0.273 ± 0.14 kcal/mol	0.258 ± 0.27 kcal/mol	0.00838 ± 0.26 kcal/mol
SAGGSAGGGEPFVIRVELEWPNNNSIPFNIPFPPGDAITAAKNIASPLRKMGRPIKIKITDIYPSAGGSAGG [r6_721_TrROS]	0.545 ± 0.13 kcal/mol	0.0836 ± 0.41 kcal/mol	0.419 ± 0.16 kcal/mol
SAGGSAGGGFILEVDPEKGVAVAYFDPSTGEVVVAVPEGPVYRFASAEEVVAATGKPVVIVPATSAGGSAGG [r6_752_TrMRF]	1.17 ± 0.024 kcal/mol	0.702 ± 0.044 kcal/mol	0.966 ± 0.054 kcal/mol
SAGGSAGGGGMTVTITVPVPSPTATYTVSFPSSSATASFTAEPGGPLTITVNAPSVTSITVTVSSAGGSAGG [r6_808_JUSTAS]	3.03 ± 0.1 kcal/mol	3.98 ± 0.053 kcal/mol	3.63 ± 0.11 kcal/mol
SAGGSAGGGGTLTIEVDAPAGAKKINIELPGGTVSNLSYDPSTGKATIPFDTPEQAKAVEALVGSAGGSAGG [r6_745_TrMRF]	-0.493 ± 0.097 kcal/mol	0.098 ± 0.088 kcal/mol	-0.086 ± 0.058 kcal/mol
SAGGSAGGGKPKVEIEYNGKTYEFDSLEELVAEAKEPVRIRLPNGEEIELSREDLKNLTVRLVPSAGGSAGG [r6_684_TrROS_Hall]	1.55 ± 0.018 kcal/mol	2.29 ± 0.056 kcal/mol	1.99 ± 0.043 kcal/mol
SAGGSAGGGKRLEITRTYFIPPDDIDKLKDLPGIREVTPHRMPDGYYMITVTIRIPISADQLKASAGGSAGG [r6_155_TrROS]	1.7 ± 0.051 kcal/mol	2.1 ± 0.084 kcal/mol	1.94 ± 0.2 kcal/mol
SAGGSAGGGMKFVKVTLEYAGGEVREYLFTTSSSDSTVEVVIEDLPPEKGARITEITEYPASLLSAGGSAGG [r6_530_JUSTAS]	0.746 ± 0.068 kcal/mol	1.17 ± 0.16 kcal/mol	0.978 ± 0.21 kcal/mol
SAGGSAGGGMKITEITIEKDPENPDTYTITIKVDGKTYTITVKKGETLYIFDKDGKLVLEIKVDSAGGSAGG [r6_920_TrROS_Hall]	4 ± 0.41 kcal/mol	5.24 ± 0.14 kcal/mol	5.1 ± 0.25 kcal/mol

Sequence	folding stability dG unfold [1]	folding stability dG unfold [2]	folding stability dG unfold [3]
SAGGSAGGGMKVKKIEIKKDPNNPNIYTITIELEDEPIEYTVPPSTPTTIKKPGGKPLYSSPLPSAGGSAGG [r6_922_JUSTAS]	-0.626 ± 0.24 kcal/mol	0.986 ± 0.26 kcal/mol	0.567 ± 0.15 kcal/mol
SAGGSAGGGMPPVVTTEISVEEVRPDERDENGNRYFLVTTTLTFPDSTVTTERWLEEEELEELLSAGGSAGG [r6_724_JUSTAS]	1.3 ± 0.033 kcal/mol	0.912 ± 0.16 kcal/mol	1.09 ± 0.15 kcal/mol
SAGGSAGGGMPSITLLETVEEKLPGSRTRVTTLSYDPATGNLVVTTTTFASPGTSTTSTTVLPPSAGGSAGG [r6_745_JUSTAS]	1.13 ± 0.038 kcal/mol	1.51 ± 0.069 kcal/mol	1.33 ± 0.074 kcal/mol
SAGGSAGGGMRIDDIDIKQDPGNPNRYKITIKFDGPPIEFTVPPGEPLPIRFPDGKPLFEIPIDSAGGSAGG [r6_922_TrROS]	0.312 ± 0.062 kcal/mol	0.486 ± 0.16 kcal/mol	0.479 ± 0.068 kcal/mol
SAGGSAGGGMSMEELKTVDYPLVVTVPLPDGSTVTVSAKVPAEDLDKAIPEVEERAKALAEEGASAGGSAGG [r6_903_JUSTAS]	-0.194 ± 0.053 kcal/mol	1.26 ± 0.038 kcal/mol	0.843 ± 0.059 kcal/mol
SAGGSAGGGMTAEELAAKAIEEALKAGETVTVEIEVTNPNGETFTLELTLVVVDPDDPEALEALSAGGSAGG [r6_534_TrROS_Hall]	1.64 ± 0.057 kcal/mol	1.29 ± 0.014 kcal/mol	1.49 ± 0.05 kcal/mol
SAGGSAGGGMTLQITSIIEIKKPPDGPVVKFTVAGPGTTRTVTINLPENEIKPTTPIPLSRVLSSAGGSAGG [r6_585_JUSTAS]	1.86 ± 0.13 kcal/mol	0.968 ± 0.48 kcal/mol	1.57 ± 0.31 kcal/mol
SAGGSAGGGNVYVKIEIYPYDPKNGEPQEQDITIPFETKEDAKDEIEKLLNMPNGMWIKIEVVDSAGGSAGG [r7_0_TrROS]	1.31 ± 0.053 kcal/mol	1.47 ± 0.035 kcal/mol	1.47 ± 0.12 kcal/mol
SAGGSAGGGPDPSLPPPEVIEVVLPPDTLFRPPGGGYLSPEEVVELAKELEEREGIKATVTIRPSAGGSAGG [r6_162_JUSTAS]	1 ± 0.09 kcal/mol	0.588 ± 0.095 kcal/mol	0.823 ± 0.15 kcal/mol
SAGGSAGGGPPLPPPVLVLPARVERVFYDPVTGELTVETVDFPVVIRPDGSVYLGDRWIPPELLSAGGSAGG [r6_514_TrMRF]	1.23 ± 0.046 kcal/mol	1.85 ± 0.12 kcal/mol	1.61 ± 0.2 kcal/mol
SAGGSAGGGPPNAPLKIYTDDGSVNLLNLDGQPLLVTVHPDATAEITLPDGTKITVPIPPGANLSAGGSAGG [r6_105_TrMRF]	1.26 ± 0.072 kcal/mol	0.628 ± 0.054 kcal/mol	0.977 ± 0.069 kcal/mol
SAGGSAGGGSISIPGPGPVSATTDPVTKTLVTVTYPTSEVRIPIEGDKFTEAETTPLPPPPALTSAGGSAGG [r6_847_JUSTAS]	-0.16 ± 0.1 kcal/mol	1.08 ± 0.036 kcal/mol	0.708 ± 0.072 kcal/mol
SAGGSAGGGSLKYTPGVHRLTYYDPATGTTTTLTFTSEEEALEYLKKKYPDVPWKRNPDGTWVLSAGGSAGG [r6_288_JUSTAS]	1.62 ± 0.059 kcal/mol	2.15 ± 0.12 kcal/mol	2.08 ± 0.25 kcal/mol
SAGGSAGGGSMGSVSVSETTTTSTEGSTTTTTTVHTTTVGGTTTTTTTTTTTSPTPGASSPATASAGGSAGG [r6_684_JUSTAS]	2.01 ± 0.065 kcal/mol	1.71 ± 0.043 kcal/mol	1.85 ± 0.047 kcal/mol
SAGGSAGGGSMSMPVTTKLVEEYTFPGTKEEAEEFLKKKLPPNYQVEITETPDSIKVKVYKVEGSAGGSAGG [r6_953_JUSTAS]	2.31 ± 0.053 kcal/mol	2.36 ± 0.042 kcal/mol	2.38 ± 0.057 kcal/mol
SAGGSAGGGSMSVSYDPSTGNTITTTTTRSPTPLTTTTTTTTFPDGSTSTSTTTTAAPPPAPTTSAGGSAGG [r6_955_JUSTAS]	0.833 ± 0.029 kcal/mol	0.716 ± 0.024 kcal/mol	0.761 ± 0.046 kcal/mol
SAGGSAGGGWITIPIYIIKMKRTRRDPDGKPKPLDPNDPEDFEVVPPRPFRIPLPPEEAKKLLKSAGGSAGG [r6_219_TrROS]	-0.542 ± 0.32 kcal/mol	-0.464 ± 0.43 kcal/mol	-0.434 ± 0.24 kcal/mol
SAGGSAGGIEVKIEGEIKPVKVTVSFSTANGDGNPKEYPVEKTYLVVDIKIEVNSPEAAKKINISAGGSAGG [r6_149_TrMRF]	1.37 ± 0.058 kcal/mol	3 ± 0.13 kcal/mol	2.51 ± 0.14 kcal/mol
SAGGSAGGIIVWFPFDDIDELIKNGNIDEVEISRDPNDWFRFTPEIRPPPPPPPEQLAKNNKKNSAGGSAGG [r6_279_TrROS]	1.03 ± 0.16 kcal/mol	0.493 ± 0.11 kcal/mol	0.735 ± 0.22 kcal/mol
SAGGSAGGIKPGETVLIVFKDKPEILVFPPGMSEEERKAFPGAKFILVKVEKPELTEEELKALESAGGSAGG [r6_830_TrROS_Hall]	-0.623 ± 0.13 kcal/mol	-0.275 ± 0.18 kcal/mol	-0.232 ± 0.16 kcal/mol
SAGGSAGGIRINPENGQIYFPLENGKAKSVPFKPGQEREIPNGWRITIKPDPPGPWEIEVKPLDSAGGSAGG [r6_296_TrROS]	-0.509 ± 0.42 kcal/mol	-0.578 ± 0.61 kcal/mol	-0.499 ± 0.22 kcal/mol
